The target of experiment [1] is T1, His-tagged EspB (EspB-His), recombinant EPEC EspB (enteropathogenic E. coli (EPEC) O127:H6 …, UniProt Q05129 1-321).
T1 construct: also called recombinant EspB (full-length); full-length EspB
T1 sequence: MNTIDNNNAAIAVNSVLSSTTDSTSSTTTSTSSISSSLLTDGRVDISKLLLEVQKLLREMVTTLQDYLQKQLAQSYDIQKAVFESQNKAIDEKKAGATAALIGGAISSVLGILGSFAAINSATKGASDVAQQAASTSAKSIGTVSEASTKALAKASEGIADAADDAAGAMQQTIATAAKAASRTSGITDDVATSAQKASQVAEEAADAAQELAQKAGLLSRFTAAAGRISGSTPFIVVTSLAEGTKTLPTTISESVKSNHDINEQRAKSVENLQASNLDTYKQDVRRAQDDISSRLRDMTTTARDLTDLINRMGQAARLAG
In words: ELISA on coated EspB, 274 mM NaCl. (In an ELISA, binding on a coated surface is turned into a signal by an enzyme label.)

Experiment [2] has as its target T1, His-tagged EspB (EspB-His), recombinant …. In words: ELISA on coated EspB, antibody diluted in 3% milk in PBS or in goat or horse serum with 1% human serum (one reading for the bundle of three curves).
For experiment [3], the target named is T2, native EspB of wild-type EPEC.
T2 construct: also called EPEC EspB
As to the kind of experiment: western blot of normalized culture supernatants after SDS-PAGE, mAb-EspB-B7 as primary antibody, anti-human IgG HRP.

The target in experiment [4] is T3, C. rodentium EspB (Citrobacter rodentium DBS100).
T3 construct: also called EspB of Citrobacter rodentium
The experiment is described as above.

For experiment [5], the target named is T4, EHEC EspB.
T4 construct: also called EspB of enterohemorrhagic E. coli
As to the kind of experiment: western blot of bacterial supernatant with mAb-EspB-B7. (In general: Immunoblotting shows a protein as a band on a membrane.)

The target in experiment [6] is T5, Salmonella EspB homolog (Salmonella enterica serovar Typhimurium, UniProt D0ZV21 1-409).
T5 sequence: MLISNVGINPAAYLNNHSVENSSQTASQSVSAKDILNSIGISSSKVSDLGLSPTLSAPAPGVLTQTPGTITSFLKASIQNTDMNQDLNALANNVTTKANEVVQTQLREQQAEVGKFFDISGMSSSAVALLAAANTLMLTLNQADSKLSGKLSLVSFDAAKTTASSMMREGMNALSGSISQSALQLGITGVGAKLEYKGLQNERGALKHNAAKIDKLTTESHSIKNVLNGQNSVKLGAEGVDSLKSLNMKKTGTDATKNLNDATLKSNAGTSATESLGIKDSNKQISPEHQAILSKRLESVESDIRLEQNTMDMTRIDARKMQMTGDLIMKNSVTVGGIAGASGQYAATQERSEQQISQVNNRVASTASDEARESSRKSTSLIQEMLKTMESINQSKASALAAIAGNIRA
The experiment is described as above.

Experiment [7] deals with T1, His-tagged EspB (EspB-His), recombinant …. In words: ELISA on coated EspB, 411 mM NaCl.
The target is the same in experiment [8]. As to the kind of experiment: ELISA (FIG. 4A) and SPR (FIG. 4B): Biacore, EspB amine-coupled on chip, mAb 10-90 nM, steady-state fit.
The target is the same in experiment [9]. In words: ELISA on coated EspB, antibody in 0.1 M citric acid buffer, pH 7.4, 7.0, 6.6 and 5.6 (one reading for the bundle of four curves).
Experiment [10] has the same target. In words: indirect ELISA, 5 ug/ml EspB coated, serial dilution of the antibody, goat anti-human H+L HRP.
Experiment [11] shares this target. In words: ELISA on coated EspB, 45.6, 68.5 and 137 mM NaCl (one reading for the bundle).

B1: mAb-EspB-B7 (antibody, V domains shown)
VH: EVQLLESGGGLVQPGGSLRLSCAASGFTFSHYAMNWVRQAPGKGLEWVSAINSNGDSTYYPDTVKDRFTISRDNSKNTLYLQMNSLRAEDTAVYYCARDRRAGYFDYWGQGTLVTVSS
VL: DIVLTQPPSASGTPGQRVTISCSGSRDNIGKNYVSWYQQLPGTAPKLLIYRNNQRPSGVPDRFSGSKSGTSASLAISGLRSEDEADYYCSAWDTSLNAYVFGPGTQLTVL
notes: also called mAb-B7; B7 IgG1
Take B1: the EC50 (read off the curve) – broadly, the concentration needed to bring the measured effect to its halfway point – in [1] was about 8 nM; in experiment [2], about 3 nM; in experiment [7], about 10 nM; in [9], about 20 nM; in experiment [10], about 8 nM; in experiment [11] it was about 3 nM. Also, the binding result is reported as “binds” in experiment [3], “binds” in experiment [4], “binds” in experiment [5] and “no binding” in experiment [6]. Further, the Kd (in general, the constant that tells how readily two partners part at equilibrium) in experiment [8] came out at 17.4 nM.

Values taken from patent US20240166729A1 (RAMOT AT TEL AVIV UNIVERSITY, published 2024).
